Read-outs that look alike come from different tables or passages of the source.
Key:
[1] = molecular target: T1, Mutated SARS-CoV-2 (COVID-19) S protein (RBD), South African strain (K417N, E484K, N501Y) (SARS-CoV-2, UniProt P0DTC2 319-537)
[2] = molecular target: T2, Mutated SARS-CoV-2 (COVID-19) S protein (RBD) E484K (SARS-CoV-2, UniProt P0DTC2 319-537); experiment: BLI; KD column of Table 2 repeats Table 4
[3] = molecular target: T1, Mutated SARS-CoV-2 (COVID-19) S protein …; experiment: BLI; KD column of Table 2 repeats Table 4
[4] = molecular target: T3, Spike RBD, WT (Example 7, Tables 4 and 2) (SARS-CoV-2, UniProt P0DTC2 319-541); experiment: BLI; KD column of Table 2 repeats Table 4
T3 construct: also called wildtype spike protein; Spike protein RBD

[5] = molecular target: T4, Mutated SARS-CoV-2 (COVID-19) S protein (RBD) N501Y (SARS-CoV-2, UniProt P0DTC2 319-537); experiment: BLI; KD column of Table 2 repeats Table 4
T4 construct: also called N501Y: UK strain

[6] = molecular target: T5, Mutated SARS-CoV-2 (COVID-19) S protein (RBD) F490L (SARS-CoV-2, UniProt P0DTC2 319-537); experiment: BLI; KD column of Table 2 repeats Table 4
[7] = molecular target: T6, Mutated SARS-CoV-2 (COVID-19) S protein (RBD) N439K (SARS-CoV-2, UniProt P0DTC2 319-537); experiment: BLI; KD column of Table 2 repeats Table 4
[8] = molecular target: T2, Mutated SARS-CoV-2 (COVID-19) S protein …; experiment: BLI, biotinylated SR4 on streptavidin sensor, spike RBD in solution, 1:1 fit
[9] = molecular target: T1, Mutated SARS-CoV-2 (COVID-19) S protein …; experiment: as above
[10] = molecular target: T3, Spike RBD, WT (Example 7, Tables 4 and …); experiment: as above
[11] = molecular target: T4, Mutated SARS-CoV-2 (COVID-19) S protein …; experiment: as above
[12] = molecular target: T5, Mutated SARS-CoV-2 (COVID-19) S protein …; experiment: as above
[13] = molecular target: T6, Mutated SARS-CoV-2 (COVID-19) S protein …; experiment: as above

B1: Biotinylated SR4 (SR4 (5AzF) reacted with DBCO-biotin) (VHH)
VHH: QVQLVESGGGLVQAGGSLRLSCAASGFPVYSWNMWWYRQAPGKEREWVAAIESHGDSTRYADSVKGRFTISRDNAKNTVYLQMNSLKPEDTAVYYCYVWVGHTYYGQGTQVTVSA
notes: also called SR4 nanobody; biotin labeled SR4
**Q.** What does the source list for B1?
**A.** Kd [1]: 57.4 nM; Kd [2]: 31.8 nM; Kd [3]: 57 nM; Kd [4]: 17.9 nM; Kd [5]: 30.5 nM; Kd [6]: 42 nM; Kd [7]: 59.3 nM; Kd [8]: 31.8 nM; koff [8]: 0.0034 s⁻¹; kon [8]: 107000 M⁻¹ s⁻¹; Kd [9]: 57 nM; koff [9]: 0.00406 s⁻¹; kon [9]: 70800 M⁻¹ s⁻¹; Kd [10]: 17.9 nM; koff [10]: 0.00226 s⁻¹; kon [10]: 126000 M⁻¹ s⁻¹; Kd [11]: 30.5 nM; koff [11]: 0.0027 s⁻¹; kon [11]: 88600 M⁻¹ s⁻¹; Kd [12]: 42 nM; koff [12]: 0.00476 s⁻¹; kon [12]: 113000 M⁻¹ s⁻¹; Kd [13]: 59.3 nM; koff [13]: 0.00595 s⁻¹; kon [13]: 100000 M⁻¹ s⁻¹

Source: patent US20240262791A1 (University of California, published 2024)
